Measurements: PMC6527236

Key:
[1] = system: φ29 SSB Y57A (Bacillus subtilis phage φ29); assay: unwinding (oligonucleotide displacement gel); conditions: 80 μM SSB, no Mg2+ listed, helix destabilization, indirect binding read-out, EMSA: 12 mM Tris-HCl pH 7.5, 10 mM MgCl2, 1 mM DTT, 4% glycerol, 0.1 mg/ml BSA, 3 nM DNA, 15 min, 4 °C, unwinding: 50 mM Tris-HCl pH 7.5, 4% glycerol
[2] = system: φ29 SSB Y50A (Bacillus subtilis phage φ29); assay: unwinding (oligonucleotide displacement gel); conditions: 80 μM SSB, no Mg2+ listed, helix destabilization, indirect binding read-out, EMSA: 12 mM Tris-HCl pH 7.5, 10 mM MgCl2, 1 mM DTT, 4% glycerol, 0.1 mg/ml BSA, 3 nM DNA, 15 min, 4 °C, unwinding: 50 mM Tris-HCl pH 7.5, 4% glycerol
[3] = system: φ29 SSB Y57A (Bacillus subtilis phage φ29); assay: EMSA; conditions: 60 μM SSB, 10 mM Mg2+, more retarded band at the highest concentration only, EMSA: 12 mM Tris-HCl pH 7.5, 10 mM MgCl2, 1 mM DTT, 4% glycerol, 0.1 mg/ml BSA, 3 nM DNA, 15 min, 4 °C, unwinding: 50 mM Tris-HCl pH 7.5, 4% glycerol
[4] = system: φ29 SSB Y50A (Bacillus subtilis phage φ29); assay: EMSA; conditions: 60 μM SSB, 10 mM Mg2+, EMSA: 12 mM Tris-HCl pH 7.5, 10 mM MgCl2, 1 mM DTT, 4% glycerol, 0.1 mg/ml BSA, 3 nM DNA, 15 min, 4 °C, unwinding: 50 mM Tris-HCl pH 7.5, 4% glycerol

Row | Substance | binding signal (% of wild-type 17mer displacement) [1] | binding signal (% of wild-type 17mer displacement) [2] | binding signal (% of wild-type binding) [3] | binding signal (% of wild-type binding) [4]
1 | M13mp18 ssDNA annealed to 17mer | 17 | 97 |  | 
2 | 216mer yshC fragment, heat denatured |  |  | 17 | 96
